Reference: PMC10214526 (2023)
Where no end group is shown, it is not given here.

B1: fluorescein-modified truncated (103–111) LIR^ATG3 peptide (peptide)
peptide: GDGGWVDTY
modifications: also: fluorescein, position not given here
B2: fluorescein-modified linear LIR^ATG3 peptide (peptide)
chain: LEAIIEEDDGDGGWVDTYH
modifications: also: fluorescein, position not given here
B3: fluorescein-modified cyclized LIR^ATG3 peptide (peptide)
chain: LEAIIEEDDGDGGWVDTYHCGGGK
modifications: also: fluorescein, position not given here, cyclized, places not given here

What was measured:
GABARAP = GABARAP (UniProt O95166 2-116); test: FP
GABARAP, sequence (O95166 2-116): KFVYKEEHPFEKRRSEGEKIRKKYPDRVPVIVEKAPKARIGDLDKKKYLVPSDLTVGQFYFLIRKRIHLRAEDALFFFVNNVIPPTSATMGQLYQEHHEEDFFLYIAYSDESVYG

LC3A = LC3A (UniProt Q9H492 1-121); test: FP

Row | Binder | Kd (GABARAP) | Kd (LC3A)
1 | B1 | > 10000 nM | > 15000 nM
2 | B2 | 1200 nM | 2600 nM
3 | B3 | 150 nM | 410 nM
